Measured values reported in publication doi:10.1101/2025.06.11.659212 (bioRxiv, 2025).

Target: the molecule itself
Assay: cryo-EM structure

B1: cyanide hydratase from Gloeocercospora sorghi (enzyme, UniProt P32964 1-368, looked up)
chain: MPINKYKAAVVTSEPVWENLEGGVVKTIEFINEAGKAGCKLIAFPEVWIPGYPYWMWKVNYLQSLPMLKAYRENSIAMDSSEMRRIRAAARDNQIYVSIGVSEIDHATLYLTQVLISPLGDVINHRRKIKPTHVEKLVYGDGSGDSFEPVTQTEIGRLGQLNCWENMNPFLKSLAVARGEQIHVAAWPVYPDLSKQVHPDPATNYADPASDLVTPAYAIETGTWVLAPFQRISVEGLKRHTPPGVEPETDATPYNGHARIFRPDGSLYAKPAVDFDGLMYVDIDLNESHLTKALADFAGHYMRPDLIRLLVDTRRKELVTEVGGGDNGGIQSYSTMARLGLDRPLEEEDYRQGTDAGETEKASSNGHA
stoichiometry N: 24 monomers

B2: cyanide dihydratase from Bacillus safensis strain PER-URP-08 (enzyme, UniProt P0DXY3 1-330, looked up)
chain: MTSIYPKFRAAAVQAAPVYLNLEATVEKSCELIDEAASNGAKLVAFPEAFLPGYPWFAFIGHPEYTRKFYHELYKNAVEIPSLAIQKISEAAKRNETYVCISCSEKDGGSLYLAQLWFNPNGDLIGKHRKMRASVAERLIWGDGSGSMMPVFQTDIGNLGGLMCWEHQVPLDLMAMNAQNEQVHVASWPGYFDDEISSRYYAIATQTFVLMTSSIYTEEMKEMICLTQEQRDYFETFKSGHTCIYGPDGEPISDMVPAETEGIAYAEIDVERVIDYKYYIDPAGHYSNQSLSMNFNQQPTPVVKQLYHQKNEVFTYEDIQYQHGILEEKV
stoichiometry N: 18 monomers
